Results as given in paper PMC12615798.

Molecular target: cystatin C^EX (human) (UniProt P01034)
Assay: ELISA; two-fold serial dilutions of cystatin C^EX coated on the plate overnight at 4 °C, 10 μg/mL ECD-Fc added for 2 h at room temperature, anti-human-IgG-Fc-HRP

Sequence of UniProt P01034 (P01034 27-146): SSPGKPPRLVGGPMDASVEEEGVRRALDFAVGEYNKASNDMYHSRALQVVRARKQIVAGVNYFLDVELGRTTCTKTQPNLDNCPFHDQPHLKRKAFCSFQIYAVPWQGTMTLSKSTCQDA

| Substance | EC50 [nM] |
| --- | --- |
| LILRB2 ECD-Fc (commercial) (from UniProt Q8N423 22-460) (Fc fusion) | 22.8 |
| LILRB5 ECD-Fc (commercial) (from UniProt O75023 24-458) (Fc fusion) | 1180 |
